T1: ZmUB3 (Zea mays, UniProt A0A804P0G2 1-407)
T1 sequence: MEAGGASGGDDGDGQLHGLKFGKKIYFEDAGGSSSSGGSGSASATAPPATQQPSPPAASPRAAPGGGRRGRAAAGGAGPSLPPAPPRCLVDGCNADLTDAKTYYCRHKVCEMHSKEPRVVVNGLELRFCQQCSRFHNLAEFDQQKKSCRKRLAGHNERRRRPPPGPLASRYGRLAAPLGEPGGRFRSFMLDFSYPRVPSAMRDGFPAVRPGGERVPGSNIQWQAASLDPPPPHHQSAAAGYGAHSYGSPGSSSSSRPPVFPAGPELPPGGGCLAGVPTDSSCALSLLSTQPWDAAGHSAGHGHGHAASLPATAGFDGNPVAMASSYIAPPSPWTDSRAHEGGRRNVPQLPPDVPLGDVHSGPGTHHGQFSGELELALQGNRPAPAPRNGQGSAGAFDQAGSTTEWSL

B1: ZmSWEET10 MBS 40 bp probe (dsDNA)
DNA 1: TCCCGGCCCTGTGCTGATAACTGTCTCTCTTTATTACGTG
DNA 2: CACGTAATAAAGAGAGACAGTTATCAGCACAGGGCCGGGA
B2: ZmLHT14 MBS 40 bp probe (dsDNA)
DNA 1: GCGGTGCCGGAGTAGATAACTGGTACTACAAAACACAATA
DNA 2: TATTGTGTTTTGTAGTACCAGTTATCTACTCCGGCACCGC
B3: ZmMYB42 promoter GTAC 40 bp probe (dsDNA)
DNA 1: TAACAAGGGCTTAACATGGTACGGTTTATTATATGTCAGA
DNA 2: TCTGACATATAATAAACCGTACCATGTTAAGCCCTTGTTA
B4: ZmSWEET13c MBS 40 bp probe (dsDNA)
DNA 1: ATGCTGTATTGAGTCCCCCGTTGTCGGAAATTAAAATTAT
DNA 2: ATAATTTTAATTTCCGACAACGGGGGACTCAATACAGCAT
B5: ZmMYB63 promoter GTAC 40 bp probe (dsDNA)
DNA 1: AAGTTTTGCGCACAGTGGTACGGAGGCGGACTGCTCCAAT
DNA 2: ATTGGAGCAGTCCGCCTCCGTACCACTGTGCGCAAAACTT

Key:
ZmMYB42 = ZmMYB42 (Zea mays, UniProt K7V4N7 1-264); test: EMSA
ZmUB3 = target: T1, ZmUB3; test: EMSA

Binder | binding result (ZmMYB42) | binding result (ZmUB3)
B1 | binds | –
B2 | binds | –
B3 | – | binds
B4 | binds | –
B5 | – | binds
